# Measurements as given in US20080044411A1.
# Target: GLP-1 R expressed in Rinm cells
# Experiment: cell-based or functional assay
substance,measurement,value
GLP-1 peptide (from UniProt P01275 98-128),"cAMP activity in Rinm cells, EC50",0.4 nM
